{"source": "paper PMC1559926", "key": {"Caveolin-1 61-101": {"target": "Caveolin-1 61-101 (UniProt Q03135)", "sequence (Q03135 61-101)": "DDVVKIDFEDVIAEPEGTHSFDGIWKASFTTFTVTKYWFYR", "test": "given as Ka"}, "Caveolin-1 135-178": {"target": "Caveolin-1 135-178 (UniProt Q03135)", "sequence (Q03135 135-178)": "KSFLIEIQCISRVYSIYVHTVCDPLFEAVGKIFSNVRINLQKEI", "test": "given as Ka"}}, "data": [{"substance": "PrP, P04925", "values": [{"measurement": "Kd", "setting": "Caveolin-1 61-101", "value": 1.18, "unit": "nM"}, {"measurement": "Kd", "setting": "Caveolin-1 135-178", "value": 1.18, "unit": "nM"}]}]}
